Source: publication PMC6097307, “Development and characterization of an HPV18 detection kit using two novel HPV18 type-specific monoclonal antibodies” (Diagnostic Pathology, 2018)

B1: monoclonal antibody 1B1 against HPV18 L1-VLP (antibody, V domains shown)
VH: VQLQQSGGDLVKPGGSLKLSCAASGFTFSSYGMSWVRQTPDKRLEWVATISGGGSYTYYPDSVKGRFTISRDNAKNTLYLQMSSLKSEDTAMYYCSRHDSYGNYAAWFAYWGQGTTVTVS
VL: DIQLTQSPALMAASPGEKVTITCSVSSSISSSNLHWYQQKSETSPKPWIYGTSNLASGVPVRFSGSGSGTSYSLTISSMEAEDAATYYCQQWSSYPFTFGSGTKLEI
notes: IgG1; unconjugated in indirect ELISA and SPR; also called mAb 1B1; 1B1-HRP; source: mouse hybridoma (BALB/c spleen cells fused with SP2/0), ascites, purified on Protein G; copies: 2 + 2
B2: monoclonal antibody 4C2 against HPV18 L1-VLP (antibody, V domains shown)
VH: VKLQESGAELMKPGASVKISCKATGYTFRSYWIEWVKQRPGHGLEWIGEILPGSGITNYNEKFKGKATFTADTSSNTAYMQLSSLTSEDSAVYYCARHWDGNAMDYWGQGTTVTVSS
VL: DIQLTQSPLSLPVSLGDQASISCRSSQSIVHSNGNTYLEWYLQKPGQSPKLLIYKVSNRFSGVPDRFSGSGSGTDFTLKISRVEAEDLGVYYCFQGSHVPLTFGAGTKLEI
notes: IgG1; Coating antibody of the sandwich ELISA kit; also called mAb 4C2; source: mouse hybridoma (BALB/c spleen cells fused with SP2/0), ascites, purified on Protein G; copies: 2 + 2

Tests used:
[1] = biological target: T1, HPV16 L1 virus-like particle (Human papillomavirus type 16, isolate …, UniProt P03101); test: ELISA; indirect ELISA as a2 but L1-VLPs denatured (0.2 M sodium carbonate pH 10.6, 10 mM DTT, 30 min, boiled 5 min) before coating; mAb 0.3 μg/ml; details: both partners purified
T1 construct: major capsid protein L1 of human papillomavirus type 16, assembled into virus-like particles; Used native and denatured; also called HPV16 L1-VLP

[2] = biological target: T2, HPV33 L1 virus-like particle (Human papillomavirus type 33, isolate …, UniProt P06416); test: as above; details: both partners purified
T2 construct: major capsid protein L1 of human papillomavirus type 33, assembled into virus-like particles; Used native and denatured; also called HPV33 L1-VLP

[3] = biological target: T3, HPV31 L1 virus-like particle (Human papillomavirus type 31, isolate …, UniProt P17388); test: as above; details: both partners purified
T3 construct: major capsid protein L1 of human papillomavirus type 31, assembled into virus-like particles; Used native and denatured; also called HPV31 L1-VLP; HPV31VLP

[4] = biological target: T4, HPV58 L1 virus-like particle (Human papillomavirus type 58, isolate …, UniProt P26535); test: as above; details: both partners purified
T4 construct: major capsid protein L1 of human papillomavirus type 58, assembled into virus-like particles; Used native and denatured; also called HPV58 L1-VLP

[5] = biological target: T5, HPV45 L1 virus-like particle (Human papillomavirus type 45, isolate …, UniProt P36741); test: as above; details: both partners purified
T5 construct: major capsid protein L1 of human papillomavirus type 45, assembled into virus-like particles; Used native and denatured; also called HPV45 L1-VLP

[6] = biological target: T6, HPV11 L1 virus-like particle (Human papillomavirus type 11, isolate …, UniProt P04012); test: ELISA; indirect ELISA; native L1-VLPs of nine HPV types coated at 200 ng/well overnight at 4 °C; mAb 0.3 μg/ml, 1 h, room temperature; HRP goat anti-mouse IgG; details: both partners purified
T6 construct: major capsid protein L1 of human papillomavirus type 11, assembled into virus-like particles; Used native and denatured; also called HPV11 L1-VLP

[7] = biological target: T7, HPV18 L1 virus-like particle (Human papillomavirus type 18, isolate …, UniProt P06794); test: SPR; BIACORE3000; L1-VLPs coupled to the chip (40 μg/ml, acetate pH 5.5, 4000 RU); antibodies at seven concentrations 0.3125 to 20 nM in PBS; binding 60 s, dissociation 500 s; details: both partners purified
T7 construct: major capsid protein L1 of human papillomavirus type 18, assembled into virus-like particles; The background says that 72 L1 pentamers make up the capsid; Used native, and denatured (0.2 M sodium carbonate pH 10.6, 10 mM DTT, boiled) in separate assays; also called HPV18 L1-VLP; HPV18 L1-VLPs

[8] = biological target: T7, HPV18 L1 virus-like particle; test: cell-based or functional assay
[9] = biological target: T1, HPV16 L1 virus-like particle; test: ELISA; indirect ELISA; native L1-VLPs of nine HPV types coated at 200 ng/well overnight at 4 °C; mAb 0.3 μg/ml, 1 h, room temperature; HRP goat anti-mouse IgG; details: both partners purified
[10] = biological target: T2, HPV33 L1 virus-like particle; test: as above; details: both partners purified
[11] = biological target: T3, HPV31 L1 virus-like particle; test: as above; details: both partners purified
[12] = biological target: T4, HPV58 L1 virus-like particle; test: as above; details: both partners purified
[13] = biological target: T5, HPV45 L1 virus-like particle; test: as above; details: both partners purified

T7 sequence (P06794 whole entry): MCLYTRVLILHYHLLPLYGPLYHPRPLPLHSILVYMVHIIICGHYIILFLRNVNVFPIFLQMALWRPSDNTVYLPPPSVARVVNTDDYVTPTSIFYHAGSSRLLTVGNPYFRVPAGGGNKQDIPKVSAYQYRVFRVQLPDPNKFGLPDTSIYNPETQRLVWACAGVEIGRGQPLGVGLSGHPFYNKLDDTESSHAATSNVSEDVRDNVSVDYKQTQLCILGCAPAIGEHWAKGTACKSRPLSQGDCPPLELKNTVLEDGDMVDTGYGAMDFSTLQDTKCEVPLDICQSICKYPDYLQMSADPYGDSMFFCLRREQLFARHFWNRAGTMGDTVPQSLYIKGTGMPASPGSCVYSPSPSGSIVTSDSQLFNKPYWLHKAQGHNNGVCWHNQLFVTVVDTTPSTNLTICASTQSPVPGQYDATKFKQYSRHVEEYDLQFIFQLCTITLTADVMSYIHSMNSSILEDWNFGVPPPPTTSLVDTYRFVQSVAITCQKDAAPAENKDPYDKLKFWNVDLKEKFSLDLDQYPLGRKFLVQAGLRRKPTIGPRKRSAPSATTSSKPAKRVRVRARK
T1 sequence (P03101 whole entry): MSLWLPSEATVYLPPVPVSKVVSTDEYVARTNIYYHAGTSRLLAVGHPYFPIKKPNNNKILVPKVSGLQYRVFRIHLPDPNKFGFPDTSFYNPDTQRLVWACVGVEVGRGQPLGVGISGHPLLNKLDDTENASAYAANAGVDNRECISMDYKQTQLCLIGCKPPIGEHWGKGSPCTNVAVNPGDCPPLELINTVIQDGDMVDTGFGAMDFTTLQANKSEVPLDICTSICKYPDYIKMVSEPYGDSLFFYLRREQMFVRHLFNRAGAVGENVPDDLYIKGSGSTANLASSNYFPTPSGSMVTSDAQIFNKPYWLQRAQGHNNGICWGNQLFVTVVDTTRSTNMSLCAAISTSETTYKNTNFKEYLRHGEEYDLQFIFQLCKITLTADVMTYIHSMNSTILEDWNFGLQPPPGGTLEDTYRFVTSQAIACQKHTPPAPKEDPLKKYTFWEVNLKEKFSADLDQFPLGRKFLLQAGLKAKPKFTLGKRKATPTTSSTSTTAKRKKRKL
T5 sequence (P36741 whole entry): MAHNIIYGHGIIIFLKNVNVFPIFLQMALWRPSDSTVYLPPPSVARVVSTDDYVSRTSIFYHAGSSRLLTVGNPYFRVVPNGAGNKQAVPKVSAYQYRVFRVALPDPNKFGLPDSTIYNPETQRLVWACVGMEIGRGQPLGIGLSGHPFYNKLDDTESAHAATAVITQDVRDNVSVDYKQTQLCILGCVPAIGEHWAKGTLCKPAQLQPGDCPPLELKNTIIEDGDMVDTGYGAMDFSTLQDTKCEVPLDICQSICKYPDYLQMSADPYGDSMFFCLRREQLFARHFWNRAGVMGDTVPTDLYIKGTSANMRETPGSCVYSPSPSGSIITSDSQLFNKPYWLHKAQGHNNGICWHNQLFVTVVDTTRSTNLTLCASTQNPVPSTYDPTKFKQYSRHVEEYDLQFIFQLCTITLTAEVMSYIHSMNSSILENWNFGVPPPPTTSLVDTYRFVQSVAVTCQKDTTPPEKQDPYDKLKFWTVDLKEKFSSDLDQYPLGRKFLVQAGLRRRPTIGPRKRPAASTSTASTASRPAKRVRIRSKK
T4 sequence (P26535 whole entry): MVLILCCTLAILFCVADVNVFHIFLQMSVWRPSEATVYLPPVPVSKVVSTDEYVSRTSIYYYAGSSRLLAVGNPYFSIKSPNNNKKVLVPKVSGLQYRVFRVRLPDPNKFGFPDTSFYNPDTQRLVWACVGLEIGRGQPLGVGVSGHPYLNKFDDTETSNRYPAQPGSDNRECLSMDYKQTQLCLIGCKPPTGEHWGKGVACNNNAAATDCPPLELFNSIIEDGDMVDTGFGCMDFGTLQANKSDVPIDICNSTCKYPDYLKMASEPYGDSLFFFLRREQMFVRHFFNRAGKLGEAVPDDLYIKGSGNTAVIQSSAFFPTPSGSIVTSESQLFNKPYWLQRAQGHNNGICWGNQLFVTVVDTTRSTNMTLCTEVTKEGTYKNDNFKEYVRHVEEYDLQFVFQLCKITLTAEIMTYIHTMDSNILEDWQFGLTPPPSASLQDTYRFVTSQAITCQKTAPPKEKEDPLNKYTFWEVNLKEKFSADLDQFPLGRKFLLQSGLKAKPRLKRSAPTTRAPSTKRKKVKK
T3 sequence (P17388 whole entry): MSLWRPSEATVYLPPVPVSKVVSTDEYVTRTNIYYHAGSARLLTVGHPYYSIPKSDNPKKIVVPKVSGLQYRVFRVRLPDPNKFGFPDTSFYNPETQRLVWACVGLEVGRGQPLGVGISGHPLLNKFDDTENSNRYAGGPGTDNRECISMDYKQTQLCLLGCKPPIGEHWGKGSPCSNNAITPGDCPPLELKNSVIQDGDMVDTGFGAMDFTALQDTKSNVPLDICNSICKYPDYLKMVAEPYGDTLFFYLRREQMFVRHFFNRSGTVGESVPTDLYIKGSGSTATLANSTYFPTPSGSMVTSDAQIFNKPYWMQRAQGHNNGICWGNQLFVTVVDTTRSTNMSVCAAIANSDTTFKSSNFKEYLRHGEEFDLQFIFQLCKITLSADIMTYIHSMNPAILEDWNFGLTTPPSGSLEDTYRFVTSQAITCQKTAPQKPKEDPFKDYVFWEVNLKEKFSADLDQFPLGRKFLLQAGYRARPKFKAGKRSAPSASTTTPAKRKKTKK
T6 sequence (P04012 whole entry): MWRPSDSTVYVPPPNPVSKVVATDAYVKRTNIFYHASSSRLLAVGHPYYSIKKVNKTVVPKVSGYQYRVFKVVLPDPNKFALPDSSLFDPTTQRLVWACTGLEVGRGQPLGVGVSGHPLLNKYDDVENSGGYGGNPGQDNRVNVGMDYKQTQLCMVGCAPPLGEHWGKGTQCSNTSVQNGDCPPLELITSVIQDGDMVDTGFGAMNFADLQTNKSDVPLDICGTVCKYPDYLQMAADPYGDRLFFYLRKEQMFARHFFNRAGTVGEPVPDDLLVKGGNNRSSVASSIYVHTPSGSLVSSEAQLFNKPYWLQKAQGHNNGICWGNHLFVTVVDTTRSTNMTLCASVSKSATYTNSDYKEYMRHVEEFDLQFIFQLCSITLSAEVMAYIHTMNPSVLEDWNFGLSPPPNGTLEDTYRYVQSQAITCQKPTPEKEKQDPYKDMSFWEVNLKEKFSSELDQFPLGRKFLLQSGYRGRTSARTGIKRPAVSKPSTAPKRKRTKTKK
T2 sequence (P06416 whole entry): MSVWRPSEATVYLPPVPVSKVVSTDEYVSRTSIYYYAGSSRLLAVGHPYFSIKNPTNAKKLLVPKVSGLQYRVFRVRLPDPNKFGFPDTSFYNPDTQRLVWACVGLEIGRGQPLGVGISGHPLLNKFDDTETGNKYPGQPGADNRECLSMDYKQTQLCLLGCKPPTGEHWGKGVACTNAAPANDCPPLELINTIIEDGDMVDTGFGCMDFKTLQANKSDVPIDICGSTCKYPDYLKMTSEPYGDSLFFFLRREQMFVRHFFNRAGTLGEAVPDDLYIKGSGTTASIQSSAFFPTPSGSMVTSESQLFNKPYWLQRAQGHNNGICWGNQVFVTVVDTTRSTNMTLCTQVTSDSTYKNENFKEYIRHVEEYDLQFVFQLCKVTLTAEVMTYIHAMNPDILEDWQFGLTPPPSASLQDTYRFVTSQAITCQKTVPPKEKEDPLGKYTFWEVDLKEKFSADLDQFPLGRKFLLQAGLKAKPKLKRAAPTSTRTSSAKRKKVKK

Binder | binding result [1] | binding result [2] | binding result [3] | binding result [4] | binding result [5] | binding result [6] | Kd [7] [nM] | koff [7] [s⁻¹] | kon [7] [M⁻¹ s⁻¹] | IC50 of neutralisation of HPV18 pseudovirus (PsV18) infection of 293FT cells, fluorescence by flow cytometry [8] [µg/mL] | binding result [9] | binding result [10] | binding result [11] | binding result [12] | binding result [13]
B1 | no binding (tested: 0.3 μg/ml mAb) | no binding (tested: 0.3 μg/ml mAb) | no binding (tested: 0.3 μg/ml mAb) | no binding (tested: 0.3 μg/ml mAb) | no binding (tested: 0.3 μg/ml mAb) | no binding (tested: 0.3 μg/ml mAb) | 2.06 | 0.00192 | 931000 | 0.039 | – | – | – | – | –
B2 | – | – | – | – | – | no binding (tested: 0.3 μg/ml mAb) | 7.45 | 0.0178 | 2.38e+06 | 10 | no binding (tested: 0.3 μg/ml mAb) | no binding (tested: 0.3 μg/ml mAb) | no binding (tested: 0.3 μg/ml mAb) | no binding (tested: 0.3 μg/ml mAb) | no binding (tested: 0.3 μg/ml mAb)
